Laboratory results as given in article PMC4417174.

Test system: PU.1ΔN167 (ETS domain) (murine)
Assay: DMS footprinting
Conditions: saturating protein; Footprinting: 10 mM Tris-HCl pH 7.4, 150 mM NaCl, 0.1 mM EDTA, 0.5 g/l BSA, 0.1 g/l salmon sperm DNA; EMSA: 12% PAGE, 1x TBE, 0.1-10 uM protein; DLS: PBS, 25 C.

For “PU.1 high-affinity site, 206-bp footprinting fragment”, the binding signal (% protection of core guanines vs unbound) was 90.
